Assays:
Test in all cases: SPR; Biacore T100, CM4 chip; DIPs immobilised by amine coupling (700-900 RU), monomeric Dpr analytes in 3-fold dilution series (0.012 to 9, 27 or 81 µM); 25 °C; 10 mM Tris-HCl pH 7.2, 150 mM NaCl, 1 mM EDTA, 1 mg/mL BSA, 0.01% Tween-20; equilibrium responses fit to a 1:1 model
[1] = target: DIP-α (Drosophila melanogaster) (UniProt Q9W4R3)
[2] = target: DIP-λ (Drosophila melanogaster)
[3] = target: DIP-β isoform C (Drosophila melanogaster)
Chain of DIP-β isoform C (Drosophila melanogaster) (main, as listed by the source): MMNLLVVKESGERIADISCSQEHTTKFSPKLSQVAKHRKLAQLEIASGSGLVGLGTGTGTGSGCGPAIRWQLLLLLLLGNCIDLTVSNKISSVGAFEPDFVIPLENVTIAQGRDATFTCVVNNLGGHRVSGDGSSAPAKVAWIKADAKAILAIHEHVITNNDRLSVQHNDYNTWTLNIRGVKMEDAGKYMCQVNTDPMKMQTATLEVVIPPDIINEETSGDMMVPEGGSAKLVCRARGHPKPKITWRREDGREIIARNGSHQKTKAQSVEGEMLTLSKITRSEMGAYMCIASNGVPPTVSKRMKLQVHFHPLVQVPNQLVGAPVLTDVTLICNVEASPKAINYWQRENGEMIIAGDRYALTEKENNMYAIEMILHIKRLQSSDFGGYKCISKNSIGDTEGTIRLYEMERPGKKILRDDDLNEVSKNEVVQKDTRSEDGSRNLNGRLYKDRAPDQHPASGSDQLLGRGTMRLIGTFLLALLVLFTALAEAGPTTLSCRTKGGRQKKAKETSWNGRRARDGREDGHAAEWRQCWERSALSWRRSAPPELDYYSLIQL

Chain of DIP-λ (Drosophila melanogaster) (main, as listed by the source): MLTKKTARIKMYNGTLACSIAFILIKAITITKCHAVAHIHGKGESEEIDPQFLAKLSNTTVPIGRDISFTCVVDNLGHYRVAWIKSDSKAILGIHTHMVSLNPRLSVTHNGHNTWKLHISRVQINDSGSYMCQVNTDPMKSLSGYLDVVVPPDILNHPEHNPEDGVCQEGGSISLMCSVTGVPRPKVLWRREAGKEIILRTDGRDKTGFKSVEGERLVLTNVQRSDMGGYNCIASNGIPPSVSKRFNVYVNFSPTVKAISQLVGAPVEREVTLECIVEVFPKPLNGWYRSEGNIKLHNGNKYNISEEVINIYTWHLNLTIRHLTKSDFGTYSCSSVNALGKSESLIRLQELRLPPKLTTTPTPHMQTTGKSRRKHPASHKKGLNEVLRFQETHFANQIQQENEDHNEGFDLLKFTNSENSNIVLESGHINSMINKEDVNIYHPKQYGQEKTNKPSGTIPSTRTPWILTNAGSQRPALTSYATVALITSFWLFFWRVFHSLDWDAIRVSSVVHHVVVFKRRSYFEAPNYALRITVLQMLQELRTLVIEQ
Chain of DIP-α (Drosophila melanogaster) (Q9W4R3 entry or part of it): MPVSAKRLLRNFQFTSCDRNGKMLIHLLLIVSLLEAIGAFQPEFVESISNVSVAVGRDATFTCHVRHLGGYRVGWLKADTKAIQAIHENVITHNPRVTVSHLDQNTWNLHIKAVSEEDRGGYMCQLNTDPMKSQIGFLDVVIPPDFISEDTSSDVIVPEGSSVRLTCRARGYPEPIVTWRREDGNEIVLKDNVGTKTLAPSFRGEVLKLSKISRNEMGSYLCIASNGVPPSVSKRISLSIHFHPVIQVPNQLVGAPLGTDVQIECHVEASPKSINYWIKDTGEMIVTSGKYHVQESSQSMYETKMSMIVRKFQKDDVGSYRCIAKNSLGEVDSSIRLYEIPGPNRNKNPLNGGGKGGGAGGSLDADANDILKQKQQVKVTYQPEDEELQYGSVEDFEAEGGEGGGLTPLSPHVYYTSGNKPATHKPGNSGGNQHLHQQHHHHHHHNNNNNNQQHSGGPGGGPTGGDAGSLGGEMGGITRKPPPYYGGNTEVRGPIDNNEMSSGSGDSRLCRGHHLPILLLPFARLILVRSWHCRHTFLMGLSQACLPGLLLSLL

B1: Dpr10 isoform A (domain or fragment)
chain: WNEPYFDLTMPRNITSLVGKSAYLGCRVKHLGNKTVAWIRHRDLHILTVGTYTYTTDQRFQTSYHRDIDEWTLQIKWAQQRDAGVYECQISTQPVRSYSVNLNIVDLIDAETSDIMQQYYNDDAFYIAENRVYQSSNDEFAGMFGPIQTVAVPTATILGGPDLYVDKGSTINLTCIIKFSPEPPTHIFWYHQDKVLSEETSGGRLKFKTIKSEETKSILLIYDADLLHSGKYSCYPSNTEIASIRVHVLQGE
In the case of B1, the Kd [1] is reported as 1.34 µM, the Kd [2] is reported as 5.84 µM and the Kd [3] is reported as 84 µM.

From paper PMC12135937
